Assay [1] has as its target Sab:KIM1/2 L-A (MAPK/JNK-binding deficient mutant of Sab, pLOC:Sab:KIM1/2 L-A) (UniProt O60239). Put plainly: cell-based or functional assay.
Assay [2] deals with Src homology 3 domain binding protein 5 (SH3BP5 or SAB), ectopically expressed from pLOC:Sab (UniProt O60239). Put plainly: cell-based or functional assay.
Src homology 3 domain binding protein 5 (SH3BP5 or SAB), ectopically expressed from pLOC:Sab, sequence (O60239 whole entry): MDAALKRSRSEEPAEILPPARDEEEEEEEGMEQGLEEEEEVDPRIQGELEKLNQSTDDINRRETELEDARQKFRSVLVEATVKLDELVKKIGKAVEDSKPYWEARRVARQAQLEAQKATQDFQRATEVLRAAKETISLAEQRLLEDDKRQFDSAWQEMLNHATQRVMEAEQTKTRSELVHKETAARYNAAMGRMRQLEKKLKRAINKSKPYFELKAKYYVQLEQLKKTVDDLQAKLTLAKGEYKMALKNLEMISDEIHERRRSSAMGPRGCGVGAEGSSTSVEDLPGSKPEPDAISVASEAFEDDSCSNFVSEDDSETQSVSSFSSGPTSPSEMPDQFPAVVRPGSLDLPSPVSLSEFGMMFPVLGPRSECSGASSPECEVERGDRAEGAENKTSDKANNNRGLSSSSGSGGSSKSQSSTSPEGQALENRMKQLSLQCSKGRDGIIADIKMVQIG

Sab:KIM1/2 L-A (MAPK/JNK-binding deficient mutant of Sab, pLOC:Sab:KIM1/2 L-A), sequence (O60239 other isoform, or with tags, fused parts or gaps mutant limits assumed): as the sequence (O60239 whole entry) above, with L347A, L349A, L434A, L436A counted along it

In assay [1], c-Jun N-terminal Kinase (JNK) (enzyme) came in with a Cisplatin IC50 (nM), HeLa cells with ectopic expression, TO-PRO-3 staining of 3.1 nM and a Paclitaxel IC50 (µM), HeLa cells with ectopic expression, TO-PRO-3 staining of 13.8 µM. In assay [2], this substance gave a Cisplatin IC50 (nM), HeLa cells with ectopic expression, TO-PRO-3 staining of 0.42 nM; a Paclitaxel IC50 (µM), HeLa cells with ectopic expression, TO-PRO-3 staining of 4.7 µM; a fold decrease in the IC50 of paclitaxel in HeLa cells against untreated, mock-transfected or RFP-expressing cells of 5 fold.

These data come from patent US20180080944A1.
